According to the nanobody polyreactivity screen of Harvey et al. (2022):

Test: yeast display, Sf9 membrane polyspecificity reagent, FACS + sequencing; frameworks hold sequencing errors
Method in brief: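 Polyreactivity labels are assigned by the sorting gate from which each nanobody was recovered. The gates were low and high (top ~1%), set on anti-HA fluorescence for expression and streptavidin fluorescence for reagent binding. Before sorting, galactose-induced (36–48 hours) yeast display cells were stained for 1 hour at 4 °C with 10% biotinylated, detergent-solubilized Sf9 membrane reagent.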

Sequence | polyreactivity (PSR sort gate)
QVQLVESGGGLVQAGGSLRLSCAASGSIFGDYAMGWYRQAPGKERELVADISSGGSTTYADSVKGRFTISRDNAKNTVYLQMNSLKPEDTAVYYCNAERGVPYGYWGQGTQVTVSS | low polyreactivity
QVQLLETGRGLVQAGGSLRLSCASSGSIFFLYAMGWYRQAPGKERELVAAINWRTGRTYYADSVKWRFTISRDNAKNTVYFQMNSLKPEDTEVYYCAARSVPSPERGFYYWGQGTQVTVSS | high polyreactivity
QVQLVESGGGLVQAGGSLRLSCAASGLTFRSYTMGWYRQAPGTERELVAAISSGGSTYYADSVKGRFTISRDNAKNTVYLQMNSLKPEDTAVYYCAAPRGHGKYYSWGQGTQVTVSS | high polyreactivity
QVQLVESGGGLVQAGGSLRLSCAASGFTFRSYAMGLYRQAPGKEREFVAAINGRSGSTYADSVKGRFTISRDNAKNTVYLQMISLKPEDTAVYYCAARVRRGSTQAQFYYWGQGTQVTVSS | high polyreactivity
QVQLVESGGGLVQAGGSLRLSSAASGSIFASYAMGWYRQAPGKERELVAAISRRAVRTYYADSVKGRFTISRDNAKNTVYLQMNSLKPEDSAVYYCNAASSLPGYDYWGQGTQLTVSS | high polyreactivity
QVQLVESCGGLVQAGGSLRLICAASGRTFRSYTMGWYRQAPGKERELVAAISYNCGSTYYADSVKGRFTISRDNAKNTVYLQMNSLKPEDTPVYYCAVYTIYGFYYWGQGTQVSVSS | high polyreactivity
QVQLVESGGGLVQAGGSLRLSCAASGRTFYYYGMGWYRQAPGKERELVASITNGGNTNYADSVKGRFTISRDNAKYTVYLQMNSLKPEDTAVYYCAKDVPYWRPVVRYDYWGQGTQVTVSS | low polyreactivity
QVQLVESGGGLVQAGGSLRLSCAASGLTFDDYAMGWYRPAPWKEREFVATITLRGGSTYYADSVKGRFTISRDNAKNTVYLQLNSLKPEDTAVYYCNTDLGYSLEWDYDYWGQGTQVTVSS | low polyreactivity
QVQILESGGGLVQAGGSLRLSCAASGRIFGGYAMGWYRQAPGKERELVAAIRWRGGRTYYADSVKGRFTISRDNAKNTVYLQMNSLKPEDTAVYYCAADYSFTGHRYTYGYWGQGTQVTVSS | high polyreactivity
QVHLVESGVGLVQAGGSLRLSCAASGITFGYYAMGWYRQAPGKERENVAAITRRGGSTYYADSVKGRFTISRDNAKNTVYLQMNSLKPVDTAVYYCAAVSYRYWFIEDNYWGQGTQVTVSS | high polyreactivity
QVKLVESGGGLVQARGSLRLSCAASGRIFTIYAKGWYRPAPGKERELVAAITRGGNTNYADSVKGRFTISRDNAKNTVYLQMNSLKPEDTAVYNCAARANVYTKKRDYWGQGTQVTVSS | high polyreactivity
KVQLVESVGGLVQAGGSLRLSCAASGSIFRGNAIGWYRQAPGKERQLVAAISNSSGTTYYADSVKGRFTISRDNAKNTVYLQMNSLKPEDTAVYYCATRYYRGYVRGTHHVGGYYYRGQGTQVTVSS | low polyreactivity
QVQLVESGGGLVQAGGSLRLSCAASGRTFVDNGMGWYRQAPGKERELVAAITYSGGGTYYADSVKGRFTISRDNAKNTVYLQMNSLKPEDTAVYYCNAELGPVDYYGGVTPEYDYWGQGTQVTVSS | low polyreactivity
QVQLVESGGCLVQAGGSLRLSCAASGITYLEYAMGWYIQAPGKERELVATINSGGSTNYADSVKGRFTISRDNAKNTVYLQMNSLKPEDTAVYYCAAVVSDYVWRYEYWGQGTQVTVSS | low polyreactivity
QVQLVESGGGLFQAGGSHRLSCAASGSTFRVYAMGWYRHAPGKERELVADISRSVTRTYYADSVKGRFTISRDNSKNTFYLQMNSLIPEETAVYYCAAVSYYRRWQTAYYSWGQGTQVTVSS | high polyreactivity
QVQLVESGGGLVQAGGSLRLSCAASGRIFVYNAMGWYRQAPGKERELVASITSSGGSTYYADSVKGRFTISRDNAKNTVYLQMNSLKPEDTAVYYCAADVQPDTRSTPEMDYWGQGTQVTVSS | low polyreactivity
QVQLVESGGGLVQAGGSLRLSCAAYGSTLDGNAMGWYRQAPGKERELVAGLDTGGSTYYADSVKGRFTISRDNAKYTVYLQLIRLKPEDTAVYDCAATDREDYDYWGQGTQVTVSS | low polyreactivity
